According to publication PMC10876309, “Two Main Cancer Biomarkers as Molecular Targets of Binase Antitumor Activity” (BioMed Research International, 2024):

Target: the molecule itself
Assay: SDS-PAGE and western blot; binase in the immunoprecipitated samples, blotted with anti-binase antibodies; bands of 12 kDa and 25 kDa

B1: binase, ribonuclease from Bacillus pumilus (enzyme, UniProt P00649 54-162, looked up)
chain: AVINTFDGVADYLIRYKRLPDNYITKSQASALGWVASKGNLAEVAPGKSIGGDVFSNREGRLPSASGRTWREADINYVSGFRNADRLVYSSDWLIYKTTDHYATFTRIR
notes: binase, ribonuclease of Bacillus pumilus, 12.3 kDa, pI 9.5; also called bacterial ribonuclease binase; cytotoxic ribonuclease from Bacillus pumilus; source: purified as described earlier [21, 22]
B1: binds.
